Biological target: MSLN-Fc2 (Mesothelin-antibody Fc fusion protein) (human)
Experiment: SPR

Substance | Kd [nM]
Muc16 SEA10 module, uncleaved (with the Siderocalin fusion partner) (domain or fragment) | 899
Muc16 SEA11 module, uncleaved (with the Siderocalin fusion partner) (domain or fragment) | > 10000

Source: publication PMC11316652
